# Laboratory results reported in the supplement of paper PMC10724198.
# ± gives the standard deviation of the averaged measurements.
# Key:
# [1] = system: Saccharomyces cerevisiae; assay: protein stability index of tFT-peptide fusion (C-terminal peptide) (PSI (0-1 scale)); higher = more stable (slower turnover)
# Experimental: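 MPS profiling in S. cerevisiae of the tFT-X12 degron library: putative degron peptides plus stable controls, 12 aa, fused to the C-terminus of a sfGFP-mCherry timer. Cells are FACS-sorted into 8 mCherry/sfGFP bins and deep-sequenced. PSI runs from 0 (unstable) to 1 (stable). Backgrounds are wild type, das1Δ and doa10Δ at 30 °C, and wild type, das1Δ, cdc34-1 and cdc53-1 at 37 °C; 2-3 technical replicates each.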
# [2] = system: Saccharomyces cerevisiae; assay: as above; conditions: genetic background: wild type; temperature: 30 C
# [3] = genetic background: cdc34-1, temperature: 37 C
# [4] = genetic background: cdc53-1, temperature: 37 C
# [5] = genetic background: das1 deletion, temperature: 30 C
# [6] = genetic background: das1 deletion, temperature: 37 C
# [7] = genetic background: doa10 deletion, temperature: 30 C
# [8] = genetic background: wild type, temperature: 30 C
# [9] = genetic background: wild type, temperature: 37 C
# 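Also: PSI is a weighted mean of sequencing reads over stability bins, variants kept only with over 10 reads, mCherry proximal and sfGFP distal, peptide attached via GGGS linker.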
Sequence,"protein stability index [1, 3]","protein stability index [1, 4]","protein stability index [1, 5]","protein stability index [1, 6]","protein stability index [1, 7]","protein stability index [1, 8]","protein stability index [1, 9]",protein stability index [2]
WCFGSLLIRFSL,0.416 ± 0.057,0.446 ± 0.016,0.453 ± 0.04,0.5548 ± 0.0037,0.5049 ± 0.00066,0.411 ± 0.0096,0.516 ± 0.013,0.458 ± 0.024
WDLYFSVVYRVV,0.35 ± 0.04,0.484 ± 0.017,0.403 ± 0.015,0.491 ± 0.017,0.0435 ± 0.021,0.0544 ± 0.0073,0.093 ± 0.0024,0.114 ± 0.0017
WFFPVSPPVMAS,0.181 ± 0.027,0.1945 ± 0.00051,0.202 ± 0.032,0.3 ± 0.013,0.175 ± 0.004,0.211 ± 0.026,0.265 ± 0.0075,0.288 ± 0.013
WFLFVLCAWGFF,0.295 ± 0.026,0.339 ± 0.0033,0.263 ± 0.013,0.374 ± 0.039,0.263 ± 0.014,0.241 ± 0.012,0.3042 ± 0.00084,0.135 ± 0.0012
WFLLSLSSFVSS,0.427 ± 0.03,0.415 ± 0.11,0.363 ± 0.023,0.469 ± 0.0061,0.358 ± 0.037,0.351 ± 0.0038,0.4555 ± 0.00088,0.427 ± 0.015
WFSMSRLWVFYS,0.415 ± 0.043,0.637 ± 0.018,0.619 ± 0.028,0.729 ± 0.045,0.1047 ± 0.00079,0.0847 ± 0.027,0.106 ± 0.024,0.217 ± 0.082
WFSRCVSLGLCW,0.2808 ± 0.0017,0.3093 ± 0.0024,0.29 ± 0.019,0.398 ± 0.018,0.274 ± 0.012,0.302 ± 0.029,0.363 ± 0.017,0.4176 ± 0.0036
WFSVRQLVFVSG,0.119 ± 0.011,0.146 ± 0.018,0.163 ± 0.028,0.236 ± 0.0094,0.124 ± 0.0015,0.163 ± 0.019,0.218 ± 0.0069,0.218 ± 0.014
WISVRIFISCFF,0.177 ± 0.0059,0.269 ± 0.02,0.191 ± 0.024,0.318 ± 0.0052,0.192 ± 0.0026,0.191 ± 0.035,0.271 ± 0.0047,0.267 ± 0.022
WLCLAVLVRFPC,0.273 ± 0.0054,0.274 ± 0.018,0.25 ± 0.043,0.3989 ± 0.0019,0.2621 ± 0.0017,0.248 ± 0.017,0.369 ± 0.018,0.3532 ± 0.0026
WQIGIYILQGLA,0.271 ± 0.03,0.316 ± 0.0064,0.242 ± 0.04,0.389 ± 0.018,0.146 ± 0.011,0.163 ± 0.049,0.262 ± 0.015,0.256 ± 0.023
WSCVGLWGRFCC,0.663 ± 0.033,0.748 ± 0.018,0.637 ± 0.011,0.76 ± 0.013,0.267 ± 0.011,0.299 ± 0.0093,0.57 ± 0.0094,0.448 ± 0.036
